Source: the supplement of paper PMC12338614

B1: library; numbered along this chain (parent)
chain: MEVVDPQQLGMFTEGELMSVGMDTFIHRIDSTEVIYQPRRKRAKLIGKYLMGDLLGEGSYGKVKEVLDSETLCRRAVKILKKKKLRRIPNGEANVKKEIQLLRRLRHKNVIQLVDVLYNEEKQKMYMVMEYCVCGMQEMLDSVPEKRFPVCQAHGYFCQLIDGLEYLHSQGIVHKDIKPGNLLLTTGGTLKISDLGVAEALHPFAADDTCRTSQGSPAFQPPEIANGLDTFSGFKVDIWSAGVTLYNITTGLYPFEGDNIYKLFENIGKGSYAIPGDCGPPLSDLLKGMLEYEPAKRFSIRQIRQHSWFRKKHPPAEAPVPIPPSPDTKDRWRSMTVVPYLEDLHGADEDEDLFDIEDDIIYTQDFTVPGQVPEEEASHNGQRRGLPKAVCMNGTEAAQLSTKSRAEGRAPNPARKACSASSKIRRLSACKQQ

Variants of: B1
Assay: STK11 functional score (HeLa growth suppression), rescaled enrichment; synonymous median = 1, nonsense median = 0 (normalised score)
Conditions: with HeLa; variant type: missense
Method in brief: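 The values are functional scores: wild-type-corrected log ratios of post- versus pre-selection abundance, rescaled to synonymous and nonsense medians, merged over codons and replicate transfections, and carrying bootstrapped error. They derive from codon-randomised (POPCode), codon-optimised STK11 libraries that Bxb1 integrated at an AAVS1 landing pad in HeLa, with three transfections for each of three regions. Sequencing of tiled gDNA amplicons ran on NextSeq, at ~2 million reads per tile.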

STK11 functional score: each site, then its substitutions
S216: D 0.167; G 0.926; E -0.148; Y -0.11; F -0.0894; A 0.851; N 0.349; K -0.0726; V 0.614; T 0.847; W -0.0568
F219: A 0.528; P 0.116; Q 1.57; Y 1.29; L 1.11; W 1.49; G 0.713; H 1.18; R 0.1; I 1.31; S 0.778; V 0.825; K -0.214; C 0.557
T209: N 1.51; L 1; A 1.2; R 1.27; M 1.43; H 1.34; S 0.82; Q 1.5; P 1.27; G 1.36; C 1.12; F 0.568; V 1.42; W 1.28; I 0.703; E 1.17
H202: V 1.27; E 1.47; T 0.925; F 0.754; I 1.31; N 0.176; L 0.766; D 0.804; A 1.17; M 1.19; P 0.806; S 1.17; R 0.161; G 1.3; W 0.389
A206: T 0.479; Q 1.07; V 0.497; S 1.17; R 1.64; F 0.495; I 1.46; N 1.66; E 0.305; P 1.24; G 1.14; D 1.07; W 0.035; L 1.03
G215: S 1.11; V 0.788; N 1.43; I 0.938; T 1.19; M 0.509; C 1.06; W 0.29; R 0.426; A 1.15; L 1.04; Q 0.0889; D 0.255; H 0.951; Y 1.08
P203: L 1.27; R 1.01; H 0.686; A 0.904; S 1.68
D207: L 0.856; G 0.954; R 1.55; A 1.27; M 1.17; V 1.09; P 1.01; S 0.778; H 1.37; Y 0.314; E 1.48; W 0.239; N 0.668
I224: F 1.09; H 1.46; K 1.19; E 1.03
A205: E 1.64; D 1.33; P 0.302; G 0.712; S 1.18; W 1.7; Q 1.33; H 1.33; F 1.35; I 1.47; C 1.25; L 0.703; V 1.09; R 1.23
E223: K 0.308; T 0.188; H 1.18; Q 0.735; W 0.142; V 0.469; C 1.03; I 0.17; L 0.529; Y 1; S 0.551; G 0.169; R 0.921; D 0.948
T212: S 0.909; Y 1.38; H 1.59; P 0.926; N 0.481; G 1.3; Q 1.65; L 1.06; R 1.48; V 0.545; D 1.48; I 1.13; M 0.927; W 1.41; C 1.32; A 1.41; E 1.65
R211: D 1.68; S 1.32; Y 1.53; H 1.32; A 1.28; E 1.53; T 1.22; G 1.51; L 1.21; P 1.19; V 1.35; M 1.42; F 1.61; C 1.25; I 0.844
